The target of this test is PAM4 antigen (human pancreatic cancer mucin, CaPan1) (human). Put plainly: ELISA on target mucin antigen (FIG. 9). (An ELISA detects its analyte on a solid surface through an enzyme-linked reagent.)

The term EC50 denotes the concentration that produces a half-maximal response.

B1: monovalent bsPAM4 chemical conjugate (PAM4-Fab′ x anti-DTPA-Fab′) (bispecific antibody, part only; not given: Anti-DTPA Fab′ and constant parts, V domains shown, part only)
VH: QVQLQESGPELVKPGASVKMSCKASGYTFPSYVLHWVKQKPGQGLEWIGYINPYNDGTQYNEKFKGKATLTSDKSSSTAYMELSRLTSEDSAVYYCARGFGGSYGFAYWGQGTLITVSS
VL: DIQLTQSPAIMSASPGEKVTMTCSASSSVSSSYLYWYQQKPGSSPKLWIYSTSNLASGVPARFSGSGSGTSYSLTISSMEAEDAASYFCHQWNRYPYTFGGGTKLEIKR
As for B1, the EC50 was found to be 30.6 nM. This lies in the double-digit nanomolar range.

The values above are taken from patent US20090304580A1.
